Results as given in article PMC9592583.

Molecular target: proMbxA (6H-MbxA, non-acylated precursor of the RTX toxin MbxA from Moraxella bovis) (Moraxella bovis)
Assay: SEC-MALS; proMbxA species of SEC peak 1, 1.3-2.5 mg/ml, 200 ul on Superose 6 Increase 10/300 GL; 50 mM TRIS pH 7.8, 100 mM NaCl, 10 mM CaCl2

Substance “proMbxA (6H-MbxA, non-acylated precursor of the RTX toxin MbxA from Moraxella bovis) (natural protein)” has a stoichiometry N of 2.
